Data taken from US7871610B2, “Antibodies to Tie1 ectodomain” (Dyax Corp., priority 2003, dated 2011).
“Also recorded” adds a separate entry of the source.

Key:
[1] = tested on: human platelets; test: Flow cytometry binding to human platelets; conditions: non-activated human platelets, 2 and 10 μg/ml
Experimental: To avoid platelet activation, human platelets were isolated from plasma of healthy donors using the platelet GelSep kit (Biocytex, Marseille, France) kit according to the guidelines of the manufacturer. Platelets were activated by the addition of thrombin to a final concentration of 0.8 U/ml. To distinguish activated from non-activated platelets double staining was performed with Tie-1 antibodies/control antibodies and antibody CD42 (total platelets) or CD62 (activated platelets).
After preparation, platelets were resuspended in buffer 2 of the GelSep kit, 10% heat inactivated human serum (incubation buffer) and incubated for 1 hour. […] Platelets were spun down by centrifugation for 10 min at 611 g. Between incubations platelets were washed twice with Buffer 1 of the GelSep kit. Then, Strepatvidin-R-phycoerythrin together with anti-CD42-PercP or anti-CD62-PercP were incubated for 30 minutes at room temperature in incubation buffer After the last incubation and washing detection of bound antibodies was performed by means of flow cytometry on a FACSscan and Epics Altra (Becton Dickinson, Oxnard, Coulter) and results analyzed. Cells were gated on SSC and anti-CD42-PercP for the total platelets in case non-activated platelets were used and on SSC and anti-CD62-PercP for the activated platelets.

[2] = target: T1, Mouse Tie 1-Fc (Mus musculus, UniProt Q06806); test: BIAcore, E3 Fabs on mouse Tie1-Fc; assay type: binding; conditions: Fab, mouse Tie1-Fc
T1 sequence (Q06806 23-755 limits assumed): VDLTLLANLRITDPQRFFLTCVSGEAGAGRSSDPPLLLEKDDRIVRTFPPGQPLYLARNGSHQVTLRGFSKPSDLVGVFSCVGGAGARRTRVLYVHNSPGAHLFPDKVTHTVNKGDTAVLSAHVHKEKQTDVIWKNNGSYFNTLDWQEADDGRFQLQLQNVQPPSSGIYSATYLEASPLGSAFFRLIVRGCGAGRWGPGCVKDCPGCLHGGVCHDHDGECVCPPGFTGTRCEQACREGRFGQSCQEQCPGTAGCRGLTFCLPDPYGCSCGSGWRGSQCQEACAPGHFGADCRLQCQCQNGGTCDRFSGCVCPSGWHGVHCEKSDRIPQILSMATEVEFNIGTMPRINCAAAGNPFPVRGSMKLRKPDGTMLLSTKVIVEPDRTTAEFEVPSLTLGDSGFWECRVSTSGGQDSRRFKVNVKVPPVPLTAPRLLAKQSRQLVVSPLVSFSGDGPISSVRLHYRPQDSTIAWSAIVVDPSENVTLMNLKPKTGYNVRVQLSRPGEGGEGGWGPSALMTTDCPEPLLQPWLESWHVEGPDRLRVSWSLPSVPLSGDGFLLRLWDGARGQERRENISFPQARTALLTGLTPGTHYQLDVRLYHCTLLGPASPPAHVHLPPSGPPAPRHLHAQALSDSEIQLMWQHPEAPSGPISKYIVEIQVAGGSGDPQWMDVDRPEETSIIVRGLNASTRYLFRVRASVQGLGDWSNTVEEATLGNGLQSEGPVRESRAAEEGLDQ
Experimental: Mouse Tie 1-Fc antigen (0.5 mg/ml stock) was biotinylated using established procedures and after dilution 1/100 fold in HBS this was then used for capturing to a streptavidin chip. This was coated to a resonance value of 740RU. All analysis was performed in HBS buffer. The parental Fab E3 0.587 mg/ml (11740 nM) was diluted 1/587 in HBS+BSA to obtain a stock of 20 nM and the germlined Fab E3 0.025 mg/ml (500 nM) was diluted 1/25 in HBS+BSA to obtain a stock of 20 nM. Serial dilutions were made of each Fab preparation to obtain 10 nM, 5 nM, 2.5 nM, and 1.25 nM. For the association phase samples were injected at 30 μl/min for 4 minutes using kinject program. This was followed by a 10 minutes dissociation phase, any remaining sample was stripped from the Tie-1 Fc surface at a flow of 50 μl/min with a single injection of 50 mM NaOH+1 M NaCl for 18 seconds. All samples were run and analyzed in duplicate.
Sensorgrams were analyzed using the simultaneous ka/kd fitting program with 1:1 model in the BIAEVALUATION™ software 3.1.

B1: E3: human anti-Tie1 antibody from Fab phage library; HC SEQ ID NO:114, LC SEQ ID NO:116 (antibody, V domains shown)
VH: EVQLLESGGGLVQPGGSLRLSCAASGFTFSMYGMVWVRQAPGKGLEWVSVISPSGGNTGYADSVKGRFTISRDNSKNTLYLQVNSLRAEDTAVYYCARAPRGYSYGYYYWGQGTLVTVSSASTKGPSVFPLAPSSKSTSGG
VL: DIQMTQSPLSLSASVGDRVTITCRASQGIGHYLAWYQQKPGKVPKLLIYTASTLQSGVPSRFSGSGSGTDFTLTINSLQPEDVATYYCQQFNSYPHTFGQGTRLDIK
modifications: Synthetically generated peptide
binding to total platelets (CD42) [1]: Only a background number; also recorded: no significant binding to total platelets | effect of germlining on binding activity [2]: minimal effect on the binding activity
